According to article PMC8864705 (Chemical Science, 2022):

T1: 4.1G-CTD triple mutation I958D/V959D/I960D (human, UniProt O43491 939-1005, I958D | V959D | I960D)
T1 sequence (looked up): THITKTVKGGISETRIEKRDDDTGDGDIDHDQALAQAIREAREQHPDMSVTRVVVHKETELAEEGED

T2: C-terminal domain of protein 4.1G (4.1G-CTD, aa 939–1005) (human, UniProt O43491 939-1005)
T2 sequence (looked up): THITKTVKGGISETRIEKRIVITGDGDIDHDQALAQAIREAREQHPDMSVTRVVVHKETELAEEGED


Key:
[1] = target: T1, 4.1G-CTD triple mutation …; test: ITC
[2] = target: T2, C-terminal domain of protein 4.1G …; test: ITC

| Binder | Kd [1] [µM] | binding result [2] |
| --- | --- | --- |
| SGRKTRSARRRTTQIINITMTKKLDV (domain or fragment, human, UniProt Q14980 1800-1825, looked up) [NuMA 1800–1825 (26-residue motif at the C-terminal region of nuclear mitotic apparatus protein)] | 333 ± 73 | – |
| SGRKTRSARRRTTQIINITMTKKLAV (domain or fragment, human, UniProt Q14980 1800-1825, looked up) [NuMA 1800–1825 mutant D1824A] | – | binds |
